Measurements taken from patent US20190054150A1 (AEQUUS BIOPHARMA, published 2019).
Square brackets hold non-standard residues; d marks the D form. Ends that are not written are not given here. Nle = CCCC[C@H](N)C(=O)O

Target: MCR1 (human, UniProt Q01726 1-317)
Experiment: cell-based or functional assay

Sequence of MCR1 (Q01726 whole entry): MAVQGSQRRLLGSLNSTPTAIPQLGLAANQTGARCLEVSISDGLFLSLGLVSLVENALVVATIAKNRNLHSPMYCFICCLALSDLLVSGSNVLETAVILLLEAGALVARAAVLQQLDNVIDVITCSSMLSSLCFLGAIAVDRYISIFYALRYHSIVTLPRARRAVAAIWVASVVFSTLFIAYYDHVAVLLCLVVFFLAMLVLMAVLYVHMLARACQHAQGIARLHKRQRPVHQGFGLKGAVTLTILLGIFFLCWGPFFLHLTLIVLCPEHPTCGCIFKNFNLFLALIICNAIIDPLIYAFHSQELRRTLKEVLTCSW

| Binder | MCR1 EC50 (nM); cAMP production, LANCE cAMP assay, CHO-MCR1 cells, cell pool C |
| --- | --- |
| SYSMEHFRWGKPVGKKRRAVKVYPGGGSSYS[Nle]EH[dF]RWGKPV [ACTH1-24-point-5-4aa-NDP-α-MSH] | 0.32 nM |
| SYSMEHFRWGKPVGAARRPVKVYPGGGGSGGSYS[Nle]EH[dF]RWGKPV (ends and bridges not checked) [ACTH1-24-point-1-2-7aa-NDP-α-MSH] | 0.3 nM |
| SYSMEHFRWGKPVGKKAAAVKVYPGGGSSYS[Nle]EH[dF]RWGKPV (ends and bridges not checked) [ACTH1-24-point-3-5-4aa-NDP-α-MSH] | 0.3 nM |
| SYSMEHFRWGKPVGKKRRPVKVYPGGGGSGGSYS[Nle]EH[dF]RWGKPV (ends and bridges not checked) [ACTH1-24-7aa-NDP-α-MSH] | 0.24 nM |
| SYSMEHFRWGKPVGKKAAAVKVYPGGGGSGGGGSSYS[Nle]EH[dF]RWGKPV (ends and bridges not checked) [ACTH1-24-point-3-5-10aa-NDP-α-MSH] | 0.78 nM |
| SYSMEHFRWGKPVGAARRPVKVYPGGGGSGGGGSSYS[Nle]EH[dF]RWGKPV (ends and bridges not checked) [ACTH1-24-point-1-2-10aa-NDP-α-MSH] | 0.45 nM |
| SYSMEHFRWGKPVGKKRRPVKVYPGGGSSYS[Nle]EH[dF]RWGKPV (ends and bridges not checked) [ACTH1-24-4aa-NDP-α-MSH] | 0.41 nM |
| SYSMEHFRWGKPVGKKAAAVKVYPGGGGSGGSYS[Nle]EH[dF]RWGKPV (ends and bridges not checked) [ACTH1-24-point-3-5-7aa-NDP-α-MSH] | 0.41 nM |
| SYSMEHFRWGKPVGKKRRPVKVYPGGGGSGGGGSSYS[Nle]EH[dF]RWGKPV (ends and bridges not checked) [ACTH1-24-linker-linker-NDP-α-MSH] | 0.39 nM |
| SYSMEHFRWGKPVGKKRRAVKVYPGGGGSGGGGSSYS[Nle]EH[dF]RWGKPV [ACTH1-24-point-5-10aa-NDP-α-MSH] | 0.69 nM |
| Ac-SYS[Nle]EH[dF]RWGKPVGGGGSGGGGSSYSMEHFRWGKPVGKKRRPVKVYP [NDP-α-MSH-linker-linker-ACTH1-24] | 0.46 nM |
| SYSMEHFRWGKPVGKKRRAVKVYPGGGGSGGSYS[Nle]EH[dF]RWGKPV [ACTH1-24-point-5-7aa-NDP-α-MSH] | 0.22 nM |
| SYSMEHFRWGKPVGAARRPVKVYPGGGSSYS[Nle]EH[dF]RWGKPV (ends and bridges not checked) [ACTH1-24-point-1-2-4aa-NDP-α-MSH] | 0.25 nM |

Target: MCR3 (human, UniProt P41968 1-323)
Sequence (P41968 whole entry): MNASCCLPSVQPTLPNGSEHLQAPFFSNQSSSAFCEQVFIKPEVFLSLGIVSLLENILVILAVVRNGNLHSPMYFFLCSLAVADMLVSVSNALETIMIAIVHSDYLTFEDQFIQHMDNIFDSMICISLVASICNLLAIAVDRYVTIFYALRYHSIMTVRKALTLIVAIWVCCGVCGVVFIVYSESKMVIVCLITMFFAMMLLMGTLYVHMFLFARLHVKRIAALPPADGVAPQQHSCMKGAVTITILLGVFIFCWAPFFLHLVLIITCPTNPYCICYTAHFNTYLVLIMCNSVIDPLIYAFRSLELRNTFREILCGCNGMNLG
Experiment: cell-based or functional assay

| Binder | MCR3 EC50 (nM); cAMP production, LANCE cAMP assay, CHO-MCR3 cells, cell pool C |
| --- | --- |
| SYSMEHFRWGKPVGKKRRAVKVYPGGGSSYS[Nle]EH[dF]RWGKPV [ACTH1-24-point-5-4aa-NDP-α-MSH] | 0.68 nM |
| SYSMEHFRWGKPVGAARRPVKVYPGGGGSGGSYS[Nle]EH[dF]RWGKPV (ends and bridges not checked) [ACTH1-24-point-1-2-7aa-NDP-α-MSH] | 0.47 nM |
| SYSMEHFRWGKPVGKKAAAVKVYPGGGSSYS[Nle]EH[dF]RWGKPV (ends and bridges not checked) [ACTH1-24-point-3-5-4aa-NDP-α-MSH] | 0.61 nM |
| SYSMEHFRWGKPVGKKRRPVKVYPGGGGSGGSYS[Nle]EH[dF]RWGKPV (ends and bridges not checked) [ACTH1-24-7aa-NDP-α-MSH] | 0.85 nM |
| SYSMEHFRWGKPVGKKAAAVKVYPGGGGSGGGGSSYS[Nle]EH[dF]RWGKPV (ends and bridges not checked) [ACTH1-24-point-3-5-10aa-NDP-α-MSH] | 1.1 nM |
| SYSMEHFRWGKPVGAARRPVKVYPGGGGSGGGGSSYS[Nle]EH[dF]RWGKPV (ends and bridges not checked) [ACTH1-24-point-1-2-10aa-NDP-α-MSH] | 0.58 nM |
| SYSMEHFRWGKPVGKKRRPVKVYPGGGSSYS[Nle]EH[dF]RWGKPV (ends and bridges not checked) [ACTH1-24-4aa-NDP-α-MSH] | 0.92 nM |
| SYSMEHFRWGKPVGKKAAAVKVYPGGGGSGGSYS[Nle]EH[dF]RWGKPV (ends and bridges not checked) [ACTH1-24-point-3-5-7aa-NDP-α-MSH] | 0.72 nM |
| SYSMEHFRWGKPVGKKRRPVKVYPGGGGSGGGGSSYS[Nle]EH[dF]RWGKPV (ends and bridges not checked) [ACTH1-24-linker-linker-NDP-α-MSH] | 0.8 nM |
| SYSMEHFRWGKPVGKKRRAVKVYPGGGGSGGGGSSYS[Nle]EH[dF]RWGKPV [ACTH1-24-point-5-10aa-NDP-α-MSH] | 1 nM |
| Ac-SYS[Nle]EH[dF]RWGKPVGGGGSGGGGSSYSMEHFRWGKPVGKKRRPVKVYP [NDP-α-MSH-linker-linker-ACTH1-24] | 1.8 nM |
| SYSMEHFRWGKPVGKKRRAVKVYPGGGGSGGSYS[Nle]EH[dF]RWGKPV [ACTH1-24-point-5-7aa-NDP-α-MSH] | 0.76 nM |
| SYSMEHFRWGKPVGAARRPVKVYPGGGSSYS[Nle]EH[dF]RWGKPV (ends and bridges not checked) [ACTH1-24-point-1-2-4aa-NDP-α-MSH] | 0.42 nM |

Target: MCR5 (human, UniProt P33032 1-325)
Sequence (P33032 whole entry): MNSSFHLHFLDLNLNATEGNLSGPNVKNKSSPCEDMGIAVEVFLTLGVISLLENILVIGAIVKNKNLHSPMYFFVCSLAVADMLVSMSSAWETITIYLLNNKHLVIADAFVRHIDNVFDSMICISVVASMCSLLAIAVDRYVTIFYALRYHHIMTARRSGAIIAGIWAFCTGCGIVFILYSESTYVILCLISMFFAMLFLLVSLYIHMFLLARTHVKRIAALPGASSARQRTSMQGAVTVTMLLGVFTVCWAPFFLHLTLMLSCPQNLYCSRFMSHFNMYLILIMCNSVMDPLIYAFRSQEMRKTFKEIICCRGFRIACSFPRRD
Experiment: cell-based or functional assay

| Binder | MCR5 EC50 (nM); cAMP production, LANCE cAMP assay, CHO-MCR5 cells, cell pool C |
| --- | --- |
| SYSMEHFRWGKPVGKKRRAVKVYPGGGSSYS[Nle]EH[dF]RWGKPV [ACTH1-24-point-5-4aa-NDP-α-MSH] | 20 nM |
| SYSMEHFRWGKPVGAARRPVKVYPGGGGSGGSYS[Nle]EH[dF]RWGKPV (ends and bridges not checked) [ACTH1-24-point-1-2-7aa-NDP-α-MSH] | 10 nM |
| SYSMEHFRWGKPVGKKAAAVKVYPGGGSSYS[Nle]EH[dF]RWGKPV (ends and bridges not checked) [ACTH1-24-point-3-5-4aa-NDP-α-MSH] | 14 nM |
| SYSMEHFRWGKPVGKKRRPVKVYPGGGGSGGSYS[Nle]EH[dF]RWGKPV (ends and bridges not checked) [ACTH1-24-7aa-NDP-α-MSH] | 13 nM |
| SYSMEHFRWGKPVGKKAAAVKVYPGGGGSGGGGSSYS[Nle]EH[dF]RWGKPV (ends and bridges not checked) [ACTH1-24-point-3-5-10aa-NDP-α-MSH] | 16 nM |
| SYSMEHFRWGKPVGAARRPVKVYPGGGGSGGGGSSYS[Nle]EH[dF]RWGKPV (ends and bridges not checked) [ACTH1-24-point-1-2-10aa-NDP-α-MSH] | 13 nM |
| SYSMEHFRWGKPVGKKRRPVKVYPGGGSSYS[Nle]EH[dF]RWGKPV (ends and bridges not checked) [ACTH1-24-4aa-NDP-α-MSH] | 9.3 nM |
| SYSMEHFRWGKPVGKKAAAVKVYPGGGGSGGSYS[Nle]EH[dF]RWGKPV (ends and bridges not checked) [ACTH1-24-point-3-5-7aa-NDP-α-MSH] | 8.5 nM |
| SYSMEHFRWGKPVGKKRRPVKVYPGGGGSGGGGSSYS[Nle]EH[dF]RWGKPV (ends and bridges not checked) [ACTH1-24-linker-linker-NDP-α-MSH] | 9.6 nM |
| SYSMEHFRWGKPVGKKRRAVKVYPGGGGSGGGGSSYS[Nle]EH[dF]RWGKPV [ACTH1-24-point-5-10aa-NDP-α-MSH] | 11 nM |
| Ac-SYS[Nle]EH[dF]RWGKPVGGGGSGGGGSSYSMEHFRWGKPVGKKRRPVKVYP [NDP-α-MSH-linker-linker-ACTH1-24] | 9.8 nM |
| SYSMEHFRWGKPVGKKRRAVKVYPGGGGSGGSYS[Nle]EH[dF]RWGKPV [ACTH1-24-point-5-7aa-NDP-α-MSH] | 12 nM |
| SYSMEHFRWGKPVGAARRPVKVYPGGGSSYS[Nle]EH[dF]RWGKPV (ends and bridges not checked) [ACTH1-24-point-1-2-4aa-NDP-α-MSH] | 11 nM |

Target: MCR4 (human, UniProt P32245 1-332)
Sequence (P32245 whole entry): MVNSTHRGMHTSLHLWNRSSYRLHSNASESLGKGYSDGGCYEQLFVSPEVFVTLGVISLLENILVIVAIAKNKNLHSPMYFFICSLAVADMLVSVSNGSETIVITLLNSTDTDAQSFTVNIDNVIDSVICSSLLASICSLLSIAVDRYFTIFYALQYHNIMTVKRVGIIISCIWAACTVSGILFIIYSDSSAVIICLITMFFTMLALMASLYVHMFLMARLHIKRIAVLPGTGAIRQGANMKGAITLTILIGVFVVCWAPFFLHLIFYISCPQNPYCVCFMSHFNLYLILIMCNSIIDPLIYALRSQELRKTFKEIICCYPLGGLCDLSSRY
Experiment: cell-based or functional assay

| Binder | MCR4 EC50 (nM); cAMP production, LANCE cAMP assay, CHO-MCR4 cells, cell pool C |
| --- | --- |
| SYSMEHFRWGKPVGKKRRAVKVYPGGGSSYS[Nle]EH[dF]RWGKPV [ACTH1-24-point-5-4aa-NDP-α-MSH] | 1.8 nM |
| SYSMEHFRWGKPVGAARRPVKVYPGGGGSGGSYS[Nle]EH[dF]RWGKPV (ends and bridges not checked) [ACTH1-24-point-1-2-7aa-NDP-α-MSH] | 2.3 nM |
| SYSMEHFRWGKPVGKKAAAVKVYPGGGSSYS[Nle]EH[dF]RWGKPV (ends and bridges not checked) [ACTH1-24-point-3-5-4aa-NDP-α-MSH] | 2.4 nM |
| SYSMEHFRWGKPVGKKRRPVKVYPGGGGSGGSYS[Nle]EH[dF]RWGKPV (ends and bridges not checked) [ACTH1-24-7aa-NDP-α-MSH] | 1.5 nM |
| SYSMEHFRWGKPVGKKAAAVKVYPGGGGSGGGGSSYS[Nle]EH[dF]RWGKPV (ends and bridges not checked) [ACTH1-24-point-3-5-10aa-NDP-α-MSH] | 3.8 nM |
| SYSMEHFRWGKPVGAARRPVKVYPGGGGSGGGGSSYS[Nle]EH[dF]RWGKPV (ends and bridges not checked) [ACTH1-24-point-1-2-10aa-NDP-α-MSH] | 2.3 nM |
| SYSMEHFRWGKPVGKKRRPVKVYPGGGSSYS[Nle]EH[dF]RWGKPV (ends and bridges not checked) [ACTH1-24-4aa-NDP-α-MSH] | 1.9 nM |
| SYSMEHFRWGKPVGKKAAAVKVYPGGGGSGGSYS[Nle]EH[dF]RWGKPV (ends and bridges not checked) [ACTH1-24-point-3-5-7aa-NDP-α-MSH] | 2.4 nM |
| SYSMEHFRWGKPVGKKRRPVKVYPGGGGSGGGGSSYS[Nle]EH[dF]RWGKPV (ends and bridges not checked) [ACTH1-24-linker-linker-NDP-α-MSH] | 1.8 nM |
| SYSMEHFRWGKPVGKKRRAVKVYPGGGGSGGGGSSYS[Nle]EH[dF]RWGKPV [ACTH1-24-point-5-10aa-NDP-α-MSH] | 2.8 nM |
| Ac-SYS[Nle]EH[dF]RWGKPVGGGGSGGGGSSYSMEHFRWGKPVGKKRRPVKVYP [NDP-α-MSH-linker-linker-ACTH1-24] | 2.2 nM |
| SYSMEHFRWGKPVGKKRRAVKVYPGGGGSGGSYS[Nle]EH[dF]RWGKPV [ACTH1-24-point-5-7aa-NDP-α-MSH] | 2.1 nM |
| SYSMEHFRWGKPVGAARRPVKVYPGGGSSYS[Nle]EH[dF]RWGKPV (ends and bridges not checked) [ACTH1-24-point-1-2-4aa-NDP-α-MSH] | 1.7 nM |
